Experiments:
[1] = target: T1, Pf-SSB-MDCC (Plasmodium falciparum, UniProt Q8I415 77-284); assay: fluorescence titration; 100 mM NaCl; stoichiometric, 1 tetramer per (dT)70; ~4-fold fluorescence increase; Titration and stopped-flow: 20 mM Tris-Cl pH 8, 0.1 mM EDTA, 100 mM NaCl, 1 mM TCEP, 25 C; ITC same with 200 mM NaCl; Rad51 filaments: 25 mM Tris-Cl pH 7.7, 1 mM TCEP, 5% glycerol, 10 mM MgCl2, 50 mM NaCl, 3 mM ATP, ATP regeneration; settings: protein: recombinant; tags: MDCC on Cys93; chain copies: 4; single strand
[2] = target: T1, Pf-SSB-MDCC; assay: ITC; 200 mM NaCl; stoichiometric, 2 (dT)35 per tetramer; dHobs -71.8±0.2 kcal/mol; Titration and stopped-flow: 20 mM Tris-Cl pH 8, 0.1 mM EDTA, 100 mM NaCl, 1 mM TCEP, 25 C; ITC same with 200 mM NaCl; Rad51 filaments: 25 mM Tris-Cl pH 7.7, 1 mM TCEP, 5% glycerol, 10 mM MgCl2, 50 mM NaCl, 3 mM ATP, ATP regeneration; settings: protein: recombinant; tags: MDCC on Cys93; chain copies: 4; single strand; 2 copies per tetramer
[3] = target: Pf-SSB (Plasmodium falciparum, UniProt Q8I415 77-284); assay: ITC; 200 mM NaCl; stoichiometric, 2 (dT)35 per tetramer; dHobs -73.1±0.2 kcal/mol; Titration and stopped-flow: 20 mM Tris-Cl pH 8, 0.1 mM EDTA, 100 mM NaCl, 1 mM TCEP, 25 C; ITC same with 200 mM NaCl; Rad51 filaments: 25 mM Tris-Cl pH 7.7, 1 mM TCEP, 5% glycerol, 10 mM MgCl2, 50 mM NaCl, 3 mM ATP, ATP regeneration; settings: protein: recombinant; chain copies: 4; single strand; 2 copies per tetramer

Binder | binding result [1] | binding result [2] | binding result [3]
(dT)70 (ssDNA) DNA: TTTTTTTTTTTTTTTTTTTTTTTTTTTTTTTTTTTTTTTTTTTTTTTTTTTTTTTTTTTTTTTTTTTTTT | binds | – | –
TTTTTTTTTTTTTTTTTTTTTTTTTTTTTTTTTTT (ssDNA) [(dT)35] | – | binds | binds

Source: publication PMC4945038, “Rad51 Nucleoprotein Filament Disassembly Captured Using Fluorescent Plasmodium falciparum SSB as a Reporter for Single-Stranded DNA”
